Assay results reported in IntAct's records for PubMed 18275819.

Target: cac1c_human CACNA1C (UniProt Q13936)
Sequence (Q13936 whole entry): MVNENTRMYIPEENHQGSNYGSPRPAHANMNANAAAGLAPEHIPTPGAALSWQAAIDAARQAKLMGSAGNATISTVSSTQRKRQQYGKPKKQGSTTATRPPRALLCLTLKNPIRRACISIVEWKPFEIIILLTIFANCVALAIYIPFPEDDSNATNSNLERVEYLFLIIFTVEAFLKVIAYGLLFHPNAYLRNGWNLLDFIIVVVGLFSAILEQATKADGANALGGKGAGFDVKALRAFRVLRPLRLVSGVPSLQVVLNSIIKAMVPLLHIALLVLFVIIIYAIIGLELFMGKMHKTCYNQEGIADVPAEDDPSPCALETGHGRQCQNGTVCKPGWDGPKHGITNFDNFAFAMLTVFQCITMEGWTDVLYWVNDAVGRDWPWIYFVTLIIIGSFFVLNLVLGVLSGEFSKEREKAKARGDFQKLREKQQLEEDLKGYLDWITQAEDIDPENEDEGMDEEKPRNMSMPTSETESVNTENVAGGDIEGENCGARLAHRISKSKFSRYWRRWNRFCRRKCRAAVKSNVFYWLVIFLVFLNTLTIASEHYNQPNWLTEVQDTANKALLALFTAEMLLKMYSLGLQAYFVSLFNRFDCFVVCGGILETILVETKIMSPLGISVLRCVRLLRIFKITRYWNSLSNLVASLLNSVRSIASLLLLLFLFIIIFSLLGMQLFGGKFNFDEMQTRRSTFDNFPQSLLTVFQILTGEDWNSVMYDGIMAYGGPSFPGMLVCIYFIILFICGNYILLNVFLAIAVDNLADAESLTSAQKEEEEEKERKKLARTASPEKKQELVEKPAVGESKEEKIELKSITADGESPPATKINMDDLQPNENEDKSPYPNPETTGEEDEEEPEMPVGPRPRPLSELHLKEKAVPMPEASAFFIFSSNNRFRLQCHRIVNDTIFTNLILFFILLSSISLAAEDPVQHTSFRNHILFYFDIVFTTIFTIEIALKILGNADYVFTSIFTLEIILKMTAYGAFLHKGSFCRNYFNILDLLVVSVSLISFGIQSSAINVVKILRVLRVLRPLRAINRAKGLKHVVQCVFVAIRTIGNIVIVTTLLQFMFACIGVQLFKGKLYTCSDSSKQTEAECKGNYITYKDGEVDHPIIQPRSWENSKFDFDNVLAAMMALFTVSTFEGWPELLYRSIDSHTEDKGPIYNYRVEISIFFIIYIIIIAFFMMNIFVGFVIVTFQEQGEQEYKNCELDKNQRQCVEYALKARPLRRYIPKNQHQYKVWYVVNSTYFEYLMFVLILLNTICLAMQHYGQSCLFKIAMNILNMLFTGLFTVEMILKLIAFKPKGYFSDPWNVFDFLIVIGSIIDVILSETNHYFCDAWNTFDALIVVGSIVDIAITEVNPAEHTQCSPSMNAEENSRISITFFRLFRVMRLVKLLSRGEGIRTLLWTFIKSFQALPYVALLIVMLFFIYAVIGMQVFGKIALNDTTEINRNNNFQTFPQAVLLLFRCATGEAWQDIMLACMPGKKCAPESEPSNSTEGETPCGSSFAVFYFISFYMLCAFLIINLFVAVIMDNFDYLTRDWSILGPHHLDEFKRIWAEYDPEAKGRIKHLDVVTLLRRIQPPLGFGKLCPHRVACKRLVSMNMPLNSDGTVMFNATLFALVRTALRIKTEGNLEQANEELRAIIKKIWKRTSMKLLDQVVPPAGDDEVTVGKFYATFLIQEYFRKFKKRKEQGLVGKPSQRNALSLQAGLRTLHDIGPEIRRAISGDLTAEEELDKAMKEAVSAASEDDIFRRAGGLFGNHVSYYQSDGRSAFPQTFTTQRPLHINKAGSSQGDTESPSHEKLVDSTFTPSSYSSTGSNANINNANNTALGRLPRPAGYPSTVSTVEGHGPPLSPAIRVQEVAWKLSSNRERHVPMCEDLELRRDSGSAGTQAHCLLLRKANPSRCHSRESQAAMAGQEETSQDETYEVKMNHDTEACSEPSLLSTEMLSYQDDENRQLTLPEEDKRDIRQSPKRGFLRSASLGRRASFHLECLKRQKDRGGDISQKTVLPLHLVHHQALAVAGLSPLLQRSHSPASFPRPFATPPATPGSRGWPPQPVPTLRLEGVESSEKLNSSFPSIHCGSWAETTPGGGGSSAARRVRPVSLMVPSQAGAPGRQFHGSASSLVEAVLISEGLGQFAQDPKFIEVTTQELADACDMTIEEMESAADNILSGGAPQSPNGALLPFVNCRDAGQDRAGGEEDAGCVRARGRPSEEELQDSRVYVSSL

Voltage-dependent L-type calcium channel subunit beta-2 (Rattus norvegicus (Rat)), Q8VGC3-2 M245A
effect of a mutation on the interaction: decreasing interaction
